Positions count from the first letter of the chain named. Where “and” joins values, the source holds several entries; their conditions need not be identical. Equal entries are not always repeated.
T1: FLAG fusion human CRTH2 (human, UniProt Q9Y5Y4 1-395)
T1 construct: Expressed on rat 3Y1-B cells; also called human CRTH2 with a C terminal to which a FLAG tag was added; not shown: FLAG tag at the C terminal
T1 sequence: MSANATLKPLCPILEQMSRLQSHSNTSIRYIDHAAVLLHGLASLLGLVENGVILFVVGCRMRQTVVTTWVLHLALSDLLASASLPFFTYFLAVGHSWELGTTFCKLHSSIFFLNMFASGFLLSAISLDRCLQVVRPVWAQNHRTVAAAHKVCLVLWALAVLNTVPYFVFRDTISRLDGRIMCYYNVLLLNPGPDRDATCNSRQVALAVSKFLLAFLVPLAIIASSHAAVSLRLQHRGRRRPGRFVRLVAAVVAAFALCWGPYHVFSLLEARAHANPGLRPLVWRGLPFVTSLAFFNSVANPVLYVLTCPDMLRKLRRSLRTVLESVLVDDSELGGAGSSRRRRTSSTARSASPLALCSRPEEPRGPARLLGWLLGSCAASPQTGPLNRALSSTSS

T2: Azami-Green fusion cynomolgus monkey CRTH2 (cynomolgus monkey, UniProt Q9Y5Y4 1-395 (human entry))
T2 construct: Expressed on CHO/DG44 cells; not shown: Azami-Green tag from vector phmAG1-MNLinker (MBL)
T2 chain: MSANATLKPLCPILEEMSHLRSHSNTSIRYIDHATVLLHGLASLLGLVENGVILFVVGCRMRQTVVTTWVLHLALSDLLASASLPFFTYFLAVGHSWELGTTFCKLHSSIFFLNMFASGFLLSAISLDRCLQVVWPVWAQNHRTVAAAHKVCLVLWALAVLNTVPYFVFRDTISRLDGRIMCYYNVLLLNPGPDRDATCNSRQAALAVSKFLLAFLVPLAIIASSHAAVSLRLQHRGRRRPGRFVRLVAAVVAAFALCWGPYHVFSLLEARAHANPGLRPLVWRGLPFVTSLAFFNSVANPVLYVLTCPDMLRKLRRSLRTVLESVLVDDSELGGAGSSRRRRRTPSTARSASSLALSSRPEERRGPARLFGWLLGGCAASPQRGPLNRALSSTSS

B1: humanized Lym2 antibody LV0HV0 (antibody, V domains shown)
VH: EVQLVESGGGVVQPGRSLRLSCAASGFTFSNYYMAWVRQAPGKGLEWVATISYDGSSTYYRDSVKGRFTISRDNAKNSLYLQMNSLRAEDTAVYYCARHRGYYYSGAGYFDYWGQGTMVTVSS
VL: DIVMTQTPLSLPVTPGESASISCRSSQSLEYSDGYTYLEWYLQKPGQSPQVLIYGVSNRFSGVPDRFSGSGSGTDFTLKISRVEAEDVGVYYCFQATHDPLTFGQGTKLEIK
B2: rat/human chimeric Lym2 antibody (antibody, V domains shown)
VH: B1 VH with V11L, L18M, R19K, G42K, N77S, S78T, N84D, A88S, V93T, T117V
VL: DVVLTQTPVSLSVTLGDQASISCRSSQSLEYSDGYTYLEWYLQKPGQSPQVLIYGVSNRFSGVPDRFIGSGSGTDFTLKISRVEPEDLGVYYCFQATHDPLTFGSGTKLEIK
notes: expressed in FUT8 knockout CHO cells; also called chLym2
B3: humanized Lym2 antibody LV2bHV4 (antibody, V domains shown)
VH: B1 VH with L18M, N77S, V93T, T117V
VL: B1 VL with P15L, A85P
B4: humanized Lym2 antibody LV0HV3 (antibody, V domains shown)
VH: B1 VH with L18M, V93T, T117V
VL: B1 VL
B5: humanized Lym2 antibody LV2cHV0 (antibody, V domains shown)
VH: B1 VH
VL: B1 VL with I2V, M4L
B6: humanized Lym2 antibody LV1HV4 (antibody, V domains shown)
VH: B1 VH with L18M, N77S, V93T, T117V
VL: B1 VL with P15L
B7: humanized Lym2 antibody LV4HV0 (antibody, V domains shown)
VH: B1 VH
VL: B1 VL with I2V, M4L, P15L, A85P
B8: humanized Lym2 antibody LV3bHV0 (antibody, V domains shown)
VH: B1 VH
VL: B1 VL with I2V, M4L, P15L
B9: humanized Lym2 antibody LV3aHV0 (antibody, V domains shown)
VH: B1 VH
VL: B1 VL with I2V, M4L, A85P
B10: humanized Lym2 antibody LV4HV4 (antibody, V domains shown)
VH: B1 VH with L18M, N77S, V93T, T117V
VL: B1 VL with I2V, M4L, P15L, A85P
B11: humanized Lym2 antibody LV1HV0 (antibody, V domains shown)
VH: B1 VH
VL: B1 VL with P15L
B12: humanized Lym2 antibody LV2cHV4 (antibody, V domains shown)
VH: B1 VH with L18M, N77S, V93T, T117V
VL: B1 VL with I2V, M4L
B13: humanized Lym2 antibody LV2aHV4 (antibody, V domains shown)
VH: B1 VH with L18M, N77S, V93T, T117V
VL: B1 VL with M4L, P15L
B14: humanized Lym2 antibody LV2bHV0 (antibody, V domains shown)
VH: B1 VH
VL: B1 VL with P15L, A85P
B15: humanized Lym2 antibody LV0HV4 (antibody, V domains shown)
VH: B1 VH with L18M, N77S, V93T, T117V
VL: B1 VL
B16: humanized Lym2 antibody LV0HV2a (antibody, V domains shown)
VH: B1 VH with V93T, T117V
VL: B1 VL
B17: humanized Lym2 antibody LV0HV2b (antibody, V domains shown)
VH: B1 VH with L18M, T117V
VL: B1 VL
B18: humanized Lym2 antibody LV2aHV0 (antibody, V domains shown)
VH: B1 VH
VL: B1 VL with M4L, P15L
B19: humanized Lym2 antibody LV0HV1 (antibody, V domains shown)
VH: B1 VH with V93T
VL: B1 VL
notes: also called humanized anti-human CRTH2 antibody LV0HV1
B20: humanized Lym2 antibody LV3aHV4 (antibody, V domains shown)
VH: B1 VH with L18M, N77S, V93T, T117V
VL: B1 VL with I2V, M4L, A85P
B21: humanized Lym2 antibody LV3bHV4 (antibody, V domains shown)
VH: B1 VH with L18M, N77S, V93T, T117V
VL: B1 VL with I2V, M4L, P15L

molecular target: T1, FLAG fusion human CRTH2; experiment: flow cytometry on FLAG fusion human CRTH2-expressing 3Y1-B cells; logistic fit of Geomean; ± is the standard error
Description: FLAG fusion human CRTH2-expressing 3Y1-B cells were peeled using a 0.25% trypsin-EDTA (NACALAI TESQUE, Inc.), washed with PBS, and suspended with SM. Next, the cells were seeded in a 96-well plate such that one well has 1×10⁵ cells. Further, chLym2 or each of the humanized Lym2 antibodies was added at each final concentrations of 50000, 12500, 3125, 781, 195, 49, 12, and 3 ng/mL to cause a reaction at 4° C. for 60 minutes.
After the cells were washed with SM, Goat F(ab′)₂ Anti-Human IgG PE (γchain specific) (Southern Biotech Inc.) diluted 500 times with SM was added to cause a reaction at 4° C. for 60 minutes. The cells were washed with SM and resuspended with 50 μL of SM, and the fluorescent intensity was measured by flow cytometry (BD Biosciences, FACS CantoII).
The data was analyzed by FLowJo 7.65 (Tomy Digital Biology Co., Ltd.), curve fitting of the Geomean value in each concentration was performed using a Logistic curve, and the 50% effective concentration (EC₅₀) value of the binding of chLym2 and each humanized Lym2 antibody and the standard error (SE) value thereof were calculated using R language (Ver. 3.02) which is a language for statistical analysis.

Binder	EC50
B1	0.55 µg/mL and 0.87 µg/mL
B2	0.5 µg/mL and 0.54 µg/mL
B3	0.59 µg/mL
B4	0.69 µg/mL
B5	0.68 µg/mL
B6	0.58 µg/mL
B7	0.74 µg/mL
B8	0.81 µg/mL
B9	0.7 µg/mL
B10	0.68 µg/mL
B11	0.69 µg/mL
B12	0.54 µg/mL
B13	0.51 µg/mL
B14	0.67 µg/mL
B15	0.58 µg/mL and 0.67 µg/mL
B16	0.65 µg/mL
B17	0.72 µg/mL
B18	0.66 µg/mL
B19	0.78 µg/mL
B20	0.76 µg/mL
B21	0.53 µg/mL

Molecular target: T2, Azami-Green fusion cynomolgus monkey …
Experiment: flow cytometry on Azami-Green fusion cynomolgus monkey CRTH2-expressing CHO/DG44 cells, 2-30000 ng/mL
Description: The Azami-Green fusion human CRTH2-expressing CHO/DG44 cells and the cynomolgus monkey CRTH2-expressing CHO/DG44 cells established in Example 24 were peeled using 0.02% EDTA solution (NACALAI TESQUE, Inc.), washed with PBS, and suspended with SM. Next, the cells were seeded in a 96-well plate such that each well had 2×10⁵ cells, and humanized Lym2 antibody LV0HV1 or the anti-DNP IgG1 antibody at each of final concentrations 30000, 7500, 1875, 469, 117, 29, 7, and 2 ng/mL were added thereto to cause a reaction at 4° C. for 40 minutes.
After the cells were washed three times with SM, goat anti-Human IgG alexa 647 (Molecular Probes) diluted to a concentration of 10 μg/mL with SM was added thereto at 100 μL/well to perform a reaction at 4° C. for 40 minutes. The cells were washed with SM and resuspended with 100 μL of SM, and the fluorescent intensity was measured by flow cytometry (BD Biosciences, FACS CantoII).

Binder	binding result
B19	binds

— patent publication US20180371100A1 (Kyowa Kirin, published 2018)
